This is an account of results in publication PMC7994445, “The actomyosin interface contains an evolutionary conserved core and an ancillary interface involved in specificity” (Nature Communications, 2021).

Data set [1] has as its target T1, PfMyoA motor domain (amino acids 1-K768) with a T417D mutation (Plasmodium falciparum, UniProt Q8IDR3 1-768, T417D).
T1 construct: Plasmodium falciparum myosin A (PfMyoA) heavy chain, motor domain, amino acids 1-K768, with the phosphomimetic mutation T417D (TEDS site, HCM loop); Residue K768 is followed by a Gly-Ser linker and the C-terminal FLAG tag; Nucleotide-free (Rigor) in the structure; also called PfMD; PfMyoA motor-domain construct with a T417D mutation
T1 sequence: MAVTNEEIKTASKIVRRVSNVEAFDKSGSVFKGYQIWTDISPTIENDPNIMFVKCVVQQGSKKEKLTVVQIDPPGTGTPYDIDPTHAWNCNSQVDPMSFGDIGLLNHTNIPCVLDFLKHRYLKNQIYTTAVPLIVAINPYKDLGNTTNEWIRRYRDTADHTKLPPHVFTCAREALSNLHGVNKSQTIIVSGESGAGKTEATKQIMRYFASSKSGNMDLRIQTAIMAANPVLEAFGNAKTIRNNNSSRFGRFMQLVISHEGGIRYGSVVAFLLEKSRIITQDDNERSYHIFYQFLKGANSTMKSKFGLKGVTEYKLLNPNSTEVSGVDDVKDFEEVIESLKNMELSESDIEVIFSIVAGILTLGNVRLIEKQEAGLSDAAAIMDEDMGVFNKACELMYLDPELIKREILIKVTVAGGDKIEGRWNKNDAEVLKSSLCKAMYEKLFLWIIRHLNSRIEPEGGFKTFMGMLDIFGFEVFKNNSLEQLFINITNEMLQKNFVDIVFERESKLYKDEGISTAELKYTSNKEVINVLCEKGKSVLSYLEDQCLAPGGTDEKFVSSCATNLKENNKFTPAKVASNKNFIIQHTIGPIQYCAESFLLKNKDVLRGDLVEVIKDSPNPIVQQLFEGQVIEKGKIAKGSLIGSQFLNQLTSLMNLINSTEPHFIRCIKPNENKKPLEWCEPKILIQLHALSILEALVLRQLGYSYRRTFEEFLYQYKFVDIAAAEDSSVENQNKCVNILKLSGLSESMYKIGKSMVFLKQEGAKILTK
In words: cryo-EM structure; PfMyoA motor domain T417D incubated in solution with JAS-stabilized PfAct1 filaments, vitrified within 15 min; nucleotide-free (Rigor) state; helical reconstruction at 3.8 Å. The settings on record: both partners purified.

Data set [2] concerns the molecule itself. Described as above.

B1: PfActin-1 filaments (natural protein)
chain: not shown
notes: Plasmodium falciparum actin-1; ends at the final native Phe after chymotrypsin cleavage; Filamentous; unstabilised filaments were used in one motility condition; also called PfAct1; P. falciparum actin 1; not shown: His6, C-terminal, cleaved
On to B1, for which the binding result in data set [1] and in data set [2] was “binds” throughout.
